Experimental data reported in the supplement of paper PMC9112550, “Optimization of the antimicrobial peptide Bac7 by deep mutational scanning” (BMC Biology, 2022).

Test system: Escherichia coli TOP10
Test: shrunken log2 fold change of peptide-encoding DNA abundance (4.5 h post-induction vs induction); higher = less antimicrobial activity (less host growth inhibition)
Conditions: time post-induction: 4.5 h; library: site-saturation at positions 5, 18, 19, 20
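Note: peptides expressed intracellularly from a pBAD plasmid library in pooled LB shake-flask culture, induced with 0.3% L-arabinose, DNA abundance read by NGS, three biological replicates, DESeq2 with apeglm shrinkage.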

Row | Sequence | shrunken log2 fold change
1 | RRIRFRPPRLPRPRPRPEVGPRP | 0.296
2 | RRIRVRPPRLPRPRPRPVFLPRP | -0.339
3 | RRIRGRPPRLPRPRPRPCSWPRP | 0.19
4 | RRIRIRPPRLPRPRPRPYFNPRP | -1.29
5 | RRIRCRPPRLPRPRPRPSHQPRP | -1.04
6 | RRIRDRPPRLPRPRPRPMRNPRP | 0.416
7 | RRIRSRPPRLPRPRPRPFDPPRP | -0.102
8 | RRIRGRPPRLPRPRPRPVDIPRP | 0.183
9 | RRIRERPPRLPRPRPRPVKPPRP | -0.102
10 | RRIRQRPPRLPRPRPRPTTTPRP | -0.126
11 | RRIRKRPPRLPRPRPRPERDPRP | 0.621
12 | RRIRPRPPRLPRPRPRPPCTPRP | 0.00476
13 | RRIRYRPPRLPRPRPRPMRSPRP | -0.0201
14 | RRIRDRPPRLPRPRPRPFEWPRP | 0.109
15 | RRIRSRPPRLPRPRPRPEPTPRP | 0.467
16 | RRIRQRPPRLPRPRPRPYYVPRP | -0.0108
17 | RRIRMRPPRLPRPRPRPRCAPRP | 1.12
18 | RRIRSRPPRLPRPRPRPKNEPRP | -0.011
19 | RRIRDRPPRLPRPRPRPWVCPRP | -0.0108
20 | RRIRARPPRLPRPRPRPSLGPRP | 0.188
21 | RRIRRRPPRLPRPRPRPYWAPRP | -0.199
22 | RRIRMRPPRLPRPRPRPWIIPRP | -0.0943
23 | RRIRQRPPRLPRPRPRPDMDPRP | -0.0896
24 | RRIRGRPPRLPRPRPRPIGPPRP | 0.5
25 | RRIRQRPPRLPRPRPRPGEEPRP | 0.0331

Row | Sequence | shrunken log2 fold change
26 | RRIRSRPPRLPRPRPRPFHVPRP | -0.108
27 | RRIRLRPPRLPRPRPRPWKPPRP | -0.0142
28 | RRIRWRPPRLPRPRPRPGMPPRP | 0.294
29 | RRIRYRPPRLPRPRPRPTSHPRP | -0.611
30 | RRIRQRPPRLPRPRPRPHMDPRP | -1.07
31 | RRIRCRPPRLPRPRPRPYRCPRP | -0.282
32 | RRIRQRPPRLPRPRPRPENEPRP | 0.0608
33 | RRIRMRPPRLPRPRPRPGFYPRP | 0.0157
34 | RRIRRRPPRLPRPRPRPSCYPRP | -0.0677
35 | RRIRHRPPRLPRPRPRPDSRPRP | -0.00136
36 | RRIRHRPPRLPRPRPRPAIMPRP | -0.233
37 | RRIRCRPPRLPRPRPRPIVMPRP | -0.235
38 | RRIRWRPPRLPRPRPRPWVYPRP | -0.384
39 | RRIRERPPRLPRPRPRPVFVPRP | -0.178
40 | RRIRYRPPRLPRPRPRPNFKPRP | 0.633
41 | RRIRRRPPRLPRPRPRPINFPRP | -0.0729
42 | RRIRKRPPRLPRPRPRPYVEPRP | -1.51
43 | RRIRSRPPRLPRPRPRPRREPRP | 0.416
44 | RRIRGRPPRLPRPRPRPKCNPRP | 0.541
45 | RRIRNRPPRLPRPRPRPDDKPRP | -0.0189
46 | RRIRVRPPRLPRPRPRPDYYPRP | -0.679
47 | RRIRSRPPRLPRPRPRPRLFPRP | 0.376
48 | RRIRKRPPRLPRPRPRPIRWPRP | 0.0019
49 | RRIRNRPPRLPRPRPRPKYNPRP | -0.901
50 | RRIRRRPPRLPRPRPRPQCVPRP | 0.0427

Row | Sequence | shrunken log2 fold change
51 | RRIRGRPPRLPRPRPRPATGPRP | 0.308
52 | RRIRHRPPRLPRPRPRPMAVPRP | 0.159
53 | RRIRCRPPRLPRPRPRPVYCPRP | -0.755
54 | RRIRIRPPRLPRPRPRPLFVPRP | -0.642
55 | RRIRKRPPRLPRPRPRPSGPPRP | 0.0366
56 | RRIRRRPPRLPRPRPRPPHGPRP | 0.596
57 | RRIRLRPPRLPRPRPRPSQDPRP | -0.282
58 | RRIRPRPPRLPRPRPRPFTRPRP | -0.00841
59 | RRIRFRPPRLPRPRPRPPAGPRP | 0.727
60 | RRIRVRPPRLPRPRPRPLAVPRP | 0.33
61 | RRIRLRPPRLPRPRPRPIDRPRP | -0.241
62 | RRIRIRPPRLPRPRPRPIAIPRP | -0.257
63 | RRIRVRPPRLPRPRPRPLGWPRP | 0.467
64 | RRIRRRPPRLPRPRPRPLASPRP | 0.382
65 | RRIRVRPPRLPRPRPRPQSWPRP | 0.256
66 | RRIRVRPPRLPRPRPRPCWCPRP | 0.0389
67 | RRIRKRPPRLPRPRPRPMKPPRP | 0.145
68 | RRIRTRPPRLPRPRPRPEESPRP | -0.0116
69 | RRIRKRPPRLPRPRPRPLLVPRP | 0.372
70 | RRIRCRPPRLPRPRPRPRLCPRP | 0.427
71 | RRIRIRPPRLPRPRPRPKPQPRP | 0.0958
72 | RRIRIRPPRLPRPRPRPYNFPRP | -0.99
73 | RRIRCRPPRLPRPRPRPWSFPRP | -0.0435
74 | RRIRLRPPRLPRPRPRPVKWPRP | 0.215
75 | RRIRVRPPRLPRPRPRPLDLPRP | -0.0307

Row | Sequence | shrunken log2 fold change
76 | RRIRRRPPRLPRPRPRPRQYPRP | -0.191
77 | RRIRFRPPRLPRPRPRPNSGPRP | -0.166
78 | RRIRDRPPRLPRPRPRPSECPRP | -0.043
79 | RRIRIRPPRLPRPRPRPPKCPRP | -0.101
80 | RRIRVRPPRLPRPRPRPLILPRP | -0.409
81 | RRIRWRPPRLPRPRPRPEMGPRP | 0.271
82 | RRIRVRPPRLPRPRPRPVTMPRP | -0.196
83 | RRIRERPPRLPRPRPRPWRTPRP | -0.259
84 | RRIRSRPPRLPRPRPRPQMDPRP | -0.0665
85 | RRIRHRPPRLPRPRPRPEFHPRP | -0.0718
86 | RRIRQRPPRLPRPRPRPHEHPRP | 0.0439
87 | RRIRPRPPRLPRPRPRPYTTPRP | -0.52
88 | RRIRYRPPRLPRPRPRPLFFPRP | -0.751
89 | RRIRGRPPRLPRPRPRPCNPPRP | -0.266
90 | RRIRLRPPRLPRPRPRPLCEPRP | 0.0911
91 | RRIRRRPPRLPRPRPRPLPHPRP | 0.485
92 | RRIRKRPPRLPRPRPRPTMKPRP | -0.0364
93 | RRIRWRPPRLPRPRPRPCFHPRP | -0.247
94 | RRIRDRPPRLPRPRPRPRSCPRP | 0.2
95 | RRIRKRPPRLPRPRPRPMNPPRP | 0.0725
96 | RRIRVRPPRLPRPRPRPDAEPRP | 0.431
97 | RRIRPRPPRLPRPRPRPNQFPRP | -0.204
98 | RRIRHRPPRLPRPRPRPKCAPRP | -0.0408
99 | RRIRSRPPRLPRPRPRPPNWPRP | 0.504
100 | RRIRCRPPRLPRPRPRPQMEPRP | 0.04

Row | Sequence | shrunken log2 fold change
101 | RRIRPRPPRLPRPRPRPPRWPRP | 0.495
102 | RRIRQRPPRLPRPRPRPQLHPRP | -0.237
103 | RRIRLRPPRLPRPRPRPMIFPRP | 0.0629
104 | RRIRRRPPRLPRPRPRPCEMPRP | 0.36
105 | RRIRFRPPRLPRPRPRPWQWPRP | 0.00967
106 | RRIRPRPPRLPRPRPRPHAGPRP | 1.77
107 | RRIRLRPPRLPRPRPRPGYSPRP | -0.314
108 | RRIRIRPPRLPRPRPRPSQIPRP | -0.142
109 | RRIRERPPRLPRPRPRPGVQPRP | -0.351
110 | RRIRKRPPRLPRPRPRPMGCPRP | 0.408
111 | RRIRVRPPRLPRPRPRPVKYPRP | 0.228
112 | RRIRHRPPRLPRPRPRPEWQPRP | 0.145
113 | RRIRIRPPRLPRPRPRPVPQPRP | 0.224
114 | RRIRPRPPRLPRPRPRPPEKPRP | 0.544
115 | RRIRLRPPRLPRPRPRPRTLPRP | -0.166
116 | RRIRYRPPRLPRPRPRPITAPRP | -0.00947
117 | RRIRFRPPRLPRPRPRPMILPRP | -0.29
118 | RRIRHRPPRLPRPRPRPHEYPRP | -0.293
119 | RRIRPRPPRLPRPRPRPHKNPRP | -0.0554
120 | RRIRWRPPRLPRPRPRPASLPRP | 0.0313
121 | RRIRKRPPRLPRPRPRPQGYPRP | -0.0839
122 | RRIRWRPPRLPRPRPRPIYVPRP | -0.0477
123 | RRIRWRPPRLPRPRPRPNQFPRP | 0.0104
124 | RRIRSRPPRLPRPRPRPWPYPRP | -0.03
125 | RRIRDRPPRLPRPRPRPSIQPRP | -0.0741
